Legend:
[1] = biological target: cytochrome c endogenous in Vero cells (Chlorocebus (African green monkey), …, UniProt G4XXN2); experiment: immunostaining of cells or tissue
[2] = biological target: cytochrome c endogenous in human cells (HeLa, IMR-90) (Homo sapiens, UniProt P99999); experiment: immunostaining of cells or tissue
[3] = biological target: T1, cytochrome c endogenous in mouse melanoma B16-F1 cells (Mus musculus, UniProt P62897); experiment: immunostaining of cells or tissue
[4] = biological target: cytochrome c endogenous in bovine aortic endothelial cells (Bos taurus, UniProt P62894); experiment: immunostaining of cells or tissue
[5] = biological target: T1, cytochrome c endogenous in mouse …; experiment: flow cytometry on cells
[6] = biological target: 1–65 CNBr-cleaved peptide of cytochrome c (Equus caballus (assumed), UniProt P00004); experiment: ELISA

Measured: binding result

T1 sequence (P62897 whole entry): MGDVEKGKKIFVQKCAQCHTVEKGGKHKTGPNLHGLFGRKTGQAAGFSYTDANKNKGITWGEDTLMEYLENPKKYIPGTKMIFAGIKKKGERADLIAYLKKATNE
Sequence of cytochrome c endogenous in bovine aortic endothelial cells (P62894 whole entry): as the sequence (P62897 whole entry) above, with A45P, D63E, A93E counted along it
Sequence of 1–65 CNBr-cleaved peptide of cytochrome c (P00004 2-66): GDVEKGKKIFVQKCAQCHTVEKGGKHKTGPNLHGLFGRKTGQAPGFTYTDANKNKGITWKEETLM
Sequence of cytochrome c endogenous in human cells (HeLa, IMR-90) (P99999 whole entry): as the sequence (P62897 whole entry) above, with V12I, Q13M, A16S, A45P, F47Y, D51A, T59I, A84V, G90E counted along it

B1: monoclonal antibody 1D3 (original, hybridoma-derived) (antibody, V domains shown)
VH: QVQLQQPGAELVKPGASVKMSCKASGYTFTSNNMHWVKQTPGQGLEWIGGLYPGNGDTSYNQKFKGKATLTADKSSSTAYMQLSSLTSGDSAVYYCARGIRDFFAMDYWGQGTSVTVSS
VL: DIQMTQSPASQSASLGESVTITCLASQTIGTWLAWYQQKPGKSPQLLIYAATSLADGVPSRFSGSGSGTKFSFKISSLQAEDFVSYYCQQLYSTPLTFGAGTKLELK
binds: [1] | [2] | [3] | [4]

B2: recombinant monoclonal antibody R1D3 (antibody, V domains shown)
VH: B1 VH
VL: B1 VL
binds: [5] | [6] | [1]
